T1: human FcγRIIb extracellular domain with C-terminal His tag (human, UniProt P31994 43-217)
T1 construct: extracellular domain
T1 sequence (looked up): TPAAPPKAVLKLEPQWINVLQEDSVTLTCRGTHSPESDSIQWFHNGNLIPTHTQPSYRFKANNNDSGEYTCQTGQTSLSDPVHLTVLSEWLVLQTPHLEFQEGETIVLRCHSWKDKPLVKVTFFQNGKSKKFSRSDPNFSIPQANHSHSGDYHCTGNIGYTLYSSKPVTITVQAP

T2: human FcγRIIa type R extracellular domain with C-terminal His tag (human, UniProt P12318 34-217)
T2 construct: extracellular domain; also called FcγRIIaR; FcγRIIa(R)
T2 sequence (looked up): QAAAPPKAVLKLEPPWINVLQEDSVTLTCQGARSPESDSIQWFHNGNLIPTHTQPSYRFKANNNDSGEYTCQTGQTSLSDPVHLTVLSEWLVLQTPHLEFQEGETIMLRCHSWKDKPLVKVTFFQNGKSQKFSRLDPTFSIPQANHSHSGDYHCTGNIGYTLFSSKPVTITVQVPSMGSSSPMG


Legend:
[1] = target: T1, human FcγRIIb extracellular domain with …; assay: SPR (Biacore), ratio of KDs
[2] = target: T2, human FcγRIIa type R extracellular …; assay: SPR (Biacore)
[3] = target: T3, human FcγRIa extracellular domain with C-terminal His tag (human, UniProt P12314 16-292); assay: SPR (Biacore)
T3 construct: extracellular domain

[4] = target: T1, human FcγRIIb extracellular domain with …; assay: SPR (Biacore)
[5] = target: T2, human FcγRIIa type R extracellular …; assay: SPR (Biacore), parent IL6R-B3/IL6R-L
[6] = target: T1, human FcγRIIb extracellular domain with …; assay: SPR (Biacore), parent IL6R-B3/IL6R-L

T3 sequence (P12314 16-292): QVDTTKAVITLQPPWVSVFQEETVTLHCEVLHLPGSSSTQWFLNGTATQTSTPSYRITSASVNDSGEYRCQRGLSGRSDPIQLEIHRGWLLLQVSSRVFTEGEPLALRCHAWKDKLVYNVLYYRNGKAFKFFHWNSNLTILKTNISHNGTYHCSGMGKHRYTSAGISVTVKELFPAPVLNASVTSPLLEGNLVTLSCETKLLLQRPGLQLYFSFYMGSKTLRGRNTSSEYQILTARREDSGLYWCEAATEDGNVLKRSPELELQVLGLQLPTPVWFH

Row | KD(IIaH)/KD(IIb) [1] | KD(IIaR)/KD(IIb) [1] | Kd [2] [nM] | Kd [3] [nM] | Kd [4] [nM] | KD(IIaR) parent/KD(IIaR) altered polypeptide [5] | KD(IIb) parent/KD(IIb) altered polypeptide [6] | Binder
1 | 268 | 16.1 | 900 | 5.3 | 56 | 1.2 | 55.5 | IL6R-BP479/IL6R-L (antibody, human IgG1, kappa, copies: 2 + 2) heavy: QVQLQESGPGLVKPSETLSLTCAVSGHSISHDHAWSWVRQPPGEGLEWIGFISYSGITNYNPSLQGRVTISRDNSKNTLYLQMNSLRAEDTAVYYCARSLARTTAMDYWGEGTLVTVSSASTKGPSVFPLAPSSKSTSGGTAALGCLVKDYFPEPVTVSWNSGALTSGVHTFPAVLQSSGLYSLSSVVTVPSSSLGTQTYICNVNHKPSNTKVDKKVEPKSCDKTHTCPPCPAPDLLGDDSVFLFPPKPKDTLMISRTPEVTCVVIDLAEEDGEVKFNWYVDGVEVHNAKTKPREEQYNSTYRVVSVLTVLHQDWLNGKEYKCKVSNKALPAPIEKTISKAKGQPREPQVYTLPPSRDELTKNQVSLTCLVKGFYPSDIAVEWESNGQPENNYKTTPPVLDSDGSFFLYSKLTVDKSRWQQGNVFSCSVMHEALHNHYTQESLSLSP light: not shown
2 | 231 | 16.8 | 1300 | 1.3 | 78 | 0.8 | 39.7 | IL6R-BP483/IL6R-L (antibody, human IgG1, kappa, copies: 2 + 2) heavy: QVQLQESGPGLVKPSETLSLTCAVSGHSISHDHAWSWVRQPPGEGLEWIGFISYSGITNYNPSLQGRVTISRDNSKNTLYLQMNSLRAEDTAVYYCARSLARTTAMDYWGEGTLVTVSSASTKGPSVFPLAPSSKSTSGGTAALGCLVKDYFPEPVTVSWNSGALTSGVHTFPAVLQSSGLYSLSSVVTVPSSSLGTQTYICNVNHKPSNTKVDKKVEPKSCDKTHTCPPCPAPDLLGDDSVFLFPPKPKDTLMISRTPEVTCVVVDLAEEDGEVKFNWYVDGVEVHNAKTKPREEQYNSTYRVVSVLTVLHQDWLNGKEYKCKVSNKALPAPIEKTISKAKGQPREPQVYTLPPSRDELTKNQVSLTCLVKGFYPSDIAVEWESNGQPENNYKTTPPVLDSDGSFFLYSKLTVDKSRWQQGNVFSCSVMHEALHNHYTQESLSLSP light: not shown
3 | 444 | 29.2 | 520 | 1.1 | 18 | 2.1 | 174 | IL6R-BP509/IL6R-L (antibody, human IgG1, kappa, copies: 2 + 2) heavy: QVQLQESGPGLVKPSETLSLTCAVSGHSISHDHAWSWVRQPPGEGLEWIGFISYSGITNYNPSLQGRVTISRDNSKNTLYLQMNSLRAEDTAVYYCARSLARTTAMDYWGEGTLVTVSSASTKGPSVFPLAPSSKSTSGGTAALGCLVKDYFPEPVTVSWNSGALTSGVHTFPAVLQSSGLYSLSSVVTVPSSSLGTQTYICNVNHKPSNTKVDKKVEPKSCDKTHTCPPCPAPDLLGDDSVFLFPPKPKDTLMISRTPEVTCVVIDVAEEDGDVKFNWYVDGVEVHNAKTKPREEQDNSTYRVVSVLTVLHQDWLNGKEYKCKVSNKALPAPIEKTISKAKGQPREPQVYTLPPSRDELTKNQVSLTCLVKGFYPSDIAVEWESNGQPENNYKTTPPVLDSDGSFFLYSKLTVDKSRWQQGNVFSCSVMHEALHNHYTQESLSLSP light: not shown
4 | 514 | 20 | 430 | 1.1 | 21 | 2.6 | 145 | IL6R-BP505/IL6R-L (antibody, human IgG1, kappa, copies: 2 + 2) heavy: QVQLQESGPGLVKPSETLSLTCAVSGHSISHDHAWSWVRQPPGEGLEWIGFISYSGITNYNPSLQGRVTISRDNSKNTLYLQMNSLRAEDTAVYYCARSLARTTAMDYWGEGTLVTVSSASTKGPSVFPLAPSSKSTSGGTAALGCLVKDYFPEPVTVSWNSGALTSGVHTFPAVLQSSGLYSLSSVVTVPSSSLGTQTYICNVNHKPSNTKVDKKVEPKSCDKTHTCPPCPAPDLLGDDSVFLFPPKPKDTLMISRTPEVTCVVIDVAEEDGDVKFNWYVDGVEVHNAKTKPREEQYNSTYRVVSVLTVLHQDWLNGKEYKCKVSNKALPAPIEKTISKAKGQPREPQVYTLPPSRDELTKNQVSLTCLVKGFYPSDIAVEWESNGQPENNYKTTPPVLDSDGSFFLYSKLTVDKSRWQQGNVFSCSVMHEALHNHYTQESLSLSP light: not shown
5 | 241 | 17.1 | 780 | 0.82 | 46 | 1.4 | 67.8 | IL6R-BP484/IL6R-L (antibody, human IgG1, kappa, copies: 2 + 2) heavy: QVQLQESGPGLVKPSETLSLTCAVSGHSISHDHAWSWVRQPPGEGLEWIGFISYSGITNYNPSLQGRVTISRDNSKNTLYLQMNSLRAEDTAVYYCARSLARTTAMDYWGEGTLVTVSSASTKGPSVFPLAPSSKSTSGGTAALGCLVKDYFPEPVTVSWNSGALTSGVHTFPAVLQSSGLYSLSSVVTVPSSSLGTQTYICNVNHKPSNTKVDKKVEPKSCDKTHTCPPCPAPDLLGDDSVFLFPPKPKDTLMISRTPEVTCVVVDVAEDDGEVKFNWYVDGVEVHNAKTKPREEQYNSTYRVVSVLTVLHQDWLNGKEYKCKVSNKALPAPIEKTISKAKGQPREPQVYTLPPSRDELTKNQVSLTCLVKGFYPSDIAVEWESNGQPENNYKTTPPVLDSDGSFFLYSKLTVDKSRWQQGNVFSCSVMHEALHNHYTQESLSLSP light: not shown

Further lines, the binder ahead of its results:

Row | Binder | KD(IIaH)/KD(IIb) [1] | KD(IIaR)/KD(IIb) [1] | Kd [2] [nM] | Kd [3] [nM] | Kd [4] [nM] | KD(IIaR) parent/KD(IIaR) altered polypeptide [5] | KD(IIb) parent/KD(IIb) altered polypeptide [6]
6 | IL6R-BP504/IL6R-L (antibody, human IgG1, kappa, copies: 2 + 2) heavy: QVQLQESGPGLVKPSETLSLTCAVSGHSISHDHAWSWVRQPPGEGLEWIGFISYSGITNYNPSLQGRVTISRDNSKNTLYLQMNSLRAEDTAVYYCARSLARTTAMDYWGEGTLVTVSSASTKGPSVFPLAPSSKSTSGGTAALGCLVKDYFPEPVTVSWNSGALTSGVHTFPAVLQSSGLYSLSSVVTVPSSSLGTQTYICNVNHKPSNTKVDKKVEPKSCDKTHTCPPCPAPDLLGDDSVFLFPPKPKDTLMISRTPEVTCVVIDVAEEDGPVKFNWYVDGVEVHNAKTKPREEQYNSTYRVVSVLTVLHQDWLNGKEYKCKVSNKALPAPIEKTISKAKGQPREPQVYTLPPSRDELTKNQVSLTCLVKGFYPSDIAVEWESNGQPENNYKTTPPVLDSDGSFFLYSKLTVDKSRWQQGNVFSCSVMHEALHNHYTQESLSLSP light: not shown | 658 | 18.5 | 450 | 1.4 | 24 | 2.4 | 128
7 | IL6R-BP481/IL6R-L (antibody, human IgG1, kappa, copies: 2 + 2) heavy: QVQLQESGPGLVKPSETLSLTCAVSGHSISHDHAWSWVRQPPGEGLEWIGFISYSGITNYNPSLQGRVTISRDNSKNTLYLQMNSLRAEDTAVYYCARSLARTTAMDYWGEGTLVTVSSASTKGPSVFPLAPSSKSTSGGTAALGCLVKDYFPEPVTVSWNSGALTSGVHTFPAVLQSSGLYSLSSVVTVPSSSLGTQTYICNVNHKPSNTKVDKKVEPKSCDKTHTCPPCPAPDLLGDDSVFLFPPKPKDTLMISRTPEVTCVVIDVAEEDGEVKFNWYVDGVEVHNAKTKPREEQYNSTYRVVSVLTVLHQDWLNGKEYKCKVSNKALPAPIEKTISKAKGQPREPQVYTLPPSRDELTKNQVSLTCLVKGFYPSDIAVEWESNGQPENNYKTTPPVLDSDGSFFLYSKLTVDKSRWQQGNVFSCSVMHEALHNHYTQESLSLSP light: not shown | 350 | 20.5 | 400 | 1 | 19 | 2.8 | 160
8 | IL6R-BP494/IL6R-L (antibody, human IgG1, kappa, copies: 2 + 2) heavy: QVQLQESGPGLVKPSETLSLTCAVSGHSISHDHAWSWVRQPPGEGLEWIGFISYSGITNYNPSLQGRVTISRDNSKNTLYLQMNSLRAEDTAVYYCARSLARTTAMDYWGEGTLVTVSSASTKGPSVFPLAPSSKSTSGGTAALGCLVKDYFPEPVTVSWNSGALTSGVHTFPAVLQSSGLYSLSSVVTVPSSSLGTQTYICNVNHKPSNTKVDKKVEPKSCDKTHTCPPCPAPELLGDDSVFLFPPKPKDTLMISRTPEVTCVVVDVAEEDGEVKFNWYVDGVEVHNAKTKPREEQDNSTYRVVSVLTVLHQDWLNGKEYKCKVSNKALPRPIEKTISKAKGQPREPQVYTLPPSRDELTKNQVSLTCLVKGFYPSDIAVEWESNGQPENNYKTTPPVLDSDGSFFLYSKLTVDKSRWQQGNVFSCSVMHEALHNHYTQESLSLSP light: not shown | 821 | 38.6 | 250 | 3.9 | 6.6 | 4.3 | 471
9 | IL6R-BP508/IL6R-L (antibody, human IgG1, kappa, copies: 2 + 2) heavy: QVQLQESGPGLVKPSETLSLTCAVSGHSISHDHAWSWVRQPPGEGLEWIGFISYSGITNYNPSLQGRVTISRDNSKNTLYLQMNSLRAEDTAVYYCARSLARTTAMDYWGEGTLVTVSSASTKGPSVFPLAPSSKSTSGGTAALGCLVKDYFPEPVTVSWNSGALTSGVHTFPAVLQSSGLYSLSSVVTVPSSSLGTQTYICNVNHKPSNTKVDKKVEPKSCDKTHTCPPCPAPDLLGDDSVFLFPPKPKDTLMISRTPEVTCVVIDVAEEDGPVKFNWYVDGVEVHNAKTKPREEQDNSTYRVVSVLTVLHQDWLNGKEYKCKVSNKALPAPIEKTISKAKGQPREPQVYTLPPSRDELTKNQVSLTCLVKGFYPSDIAVEWESNGQPENNYKTTPPVLDSDGSFFLYSKLTVDKSRWQQGNVFSCSVMHEALHNHYTQESLSLSP light: not shown | 962 | 26 | 540 | 1.4 | 21 | 2 | 149

Source: patent publication US20220389118A1 (Chugai, published 2022)
